In US20050202000:
Changes are numbered by the printed parent chain. Where “and” joins values, the source holds several entries; their conditions need not be identical. Equal values may be shown once.

T1: plasminogen, P00747
T1 chain: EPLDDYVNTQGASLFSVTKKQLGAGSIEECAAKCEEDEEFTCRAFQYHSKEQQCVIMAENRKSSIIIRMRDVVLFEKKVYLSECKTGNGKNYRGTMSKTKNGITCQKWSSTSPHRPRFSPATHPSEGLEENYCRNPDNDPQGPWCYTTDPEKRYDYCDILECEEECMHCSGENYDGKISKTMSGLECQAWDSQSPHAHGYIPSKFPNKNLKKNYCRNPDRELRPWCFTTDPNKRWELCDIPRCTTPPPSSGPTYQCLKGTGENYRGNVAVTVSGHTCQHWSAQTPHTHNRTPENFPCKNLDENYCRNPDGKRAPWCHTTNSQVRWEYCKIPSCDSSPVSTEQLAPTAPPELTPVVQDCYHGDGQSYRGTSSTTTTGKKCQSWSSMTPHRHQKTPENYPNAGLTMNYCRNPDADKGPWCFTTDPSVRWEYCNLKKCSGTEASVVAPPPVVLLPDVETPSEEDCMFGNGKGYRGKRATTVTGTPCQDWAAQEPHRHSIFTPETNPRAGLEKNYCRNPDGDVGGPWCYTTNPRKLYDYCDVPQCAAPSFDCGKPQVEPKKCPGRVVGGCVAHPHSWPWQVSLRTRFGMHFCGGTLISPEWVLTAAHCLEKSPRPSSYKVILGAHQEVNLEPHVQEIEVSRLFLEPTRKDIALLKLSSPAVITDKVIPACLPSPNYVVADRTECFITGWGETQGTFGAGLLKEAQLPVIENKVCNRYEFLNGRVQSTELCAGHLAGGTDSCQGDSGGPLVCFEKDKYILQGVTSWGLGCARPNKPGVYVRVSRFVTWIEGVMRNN

B1: KGD-Sak · plasmin complex (protein)
chain 1: SSSFDKGKYKKGDDASYFEPTGPTLMVNVTGVDGKRNELLSPRYVEFPIKPGTTLTKEKIEYYVEWALDATAYKEFRVVELDPSAKIEVTYYDKNKKKEETKSFPITEKGDVVPDLSEHIKNPGFNLITKVVIEKK
chain 2: KVYLSECKTGNGKNYRGTMSKTKNGITCQKWSSTSPHRPRFSPATHPSEGLEENYCRNPDNDPQGPWCYTTDPEKRYDYCDILECEEECMHCSGENYDGKISKTMSGLECQAWDSQSPHAHGYIPSKFPNKNLKKNYCRNPDRELRPWCFTTDPNKRWELCDIPRCTTPPPSSGPTYQCLKGTGENYRGNVAVTVSGHTCQHWSAQTPHTHNRTPENFPCKNLDENYCRNPDGKRAPWCHTTNSQVRWEYCKIPSCDSSPVSTEQLAPTAPPELTPVVQDCYHGDGQSYRGTSSTTTTGKKCQSWSSMTPHRHQKTPENYPNAGLTMNYCRNPDADKGPWCFTTDPSVRWEYCNLKKCSGTEASVVAPPPVVLLPDVETPSEEDCMFGNGKGYRGKRATTVTGTPCQDWAAQEPHRHSIFTPETNPRAGLEKNYCRNPDGDVGGPWCYTTNPRKLYDYCDVPQCAAPSFDCGKPQVEPKKCPGRVVGGCVAHPHSWPWQVSLRTRFGMHFCGGTLISPEWVLTAAHCLEKSPRPSSYKVILGAHQEVNLEPHVQEIEVSRLFLEPTRKDIALLKLSSPAVITDKVIPACLPSPNYVVADRTECFITGWGETQGTFGAGLLKEAQLPVIENKVCNRYEFLNGRVQSTELCAGHLAGGTDSCQGDSGGPLVCFEKDKYILQGVTSWGLGCARPNKPGVYVRVSRFVTWIEGVMRNN
B2: RGD-Sak · plasmin complex (protein)
chain 1: B1 chain 1 with K109R
chain 2: B1 chain 2
B3: Sak · plasmin complex (protein)
chain 1: B1 chain 1 with T24Y, R36G, R43H, D111F
chain 2: B1 chain 2

Molecular target: T1, plasminogen, P00747

Protein | Kcat | Kcat/Km | Km
B1 | 1.46 s⁻¹ | 0.1 | 14.1 µM
B2 | 1.41 s⁻¹ | 0.11 | 12.5 µM
B3 | 1.03 s⁻¹ and 1.06 s⁻¹ | 0.16 | 6.42 µM and 6.51 µM
